According to patent publication US20120093835A1 (DECIMMUNE THERAPEUTICS, published 2012):
Where no end group is shown, it is not given here.

T1: N2 peptide (Ac-LMKNMDPLNDNV), N2 self-peptide of Mouse NMHC-IIB (592-603) (mouse (the filing says the region is …, not fully specified; printed as Ac-LMKNMDPLNDNV)
T1 peptide: Ac-LMKNMDPLNDNV


Target: T1, N2 peptide (Ac-LMKNMDPLNDNV), N2 …
Experiment: not described (in vitro and in vivo binding of hybridoma antibody to N2 peptide)

| Binder | binding result |
| --- | --- |
| IgG^12A6 (12A6 IgG), antibody produced by murine B-cell hybridoma 12A6 (ATCC PTA-9392) (antibody, V domains shown, also called 12A6 hybridoma antibody; anti-N2 antibody (12A6)) VH: QVTLKESGPGILQPSQTLSLTCSFSGFSLSTFGIGVGWIRQPSGKGLEWLAHIWWNDNNYYNTSLKSRLTISKDTSNNQVFLKIASVDTADTATYYCARVGGINFSMDYWGQGTSVTVSS VL: DIVMTQSASSLAVSAGEKVTMNCKSSQSVLYSSNQKNYLAWYQQKPGQSPKLLIYWASTRESGVPDRFTGSGSGTDFTLTISSVQAEDLAVYYCHQYLSSWTFGGGTKLEIKR | binds |
| IgG^21G6 (21G6 IgG), antibody produced by murine B-cell hybridoma 21G6 (ATCC PTA-9393) (antibody, V domains shown, also called anti-N2 mAb) VH: QVQLQESGAELVKPGASVKLSCKASGYTFTSYYMYWVKQRPGQGLEWIGGINPSNGGTNFNEKFKSKATLTVDKSSSTAYMQLSSLTSEDSAVYYCTRWGYDREWFAYWGQGTLVTVSA VL: DIVMTQAAPSVPVTPGESVSISCRSSKSLLHSNGNTYLYWFLQRPGQSPQVLIYRMSNLASGVPDRFSGSGSGTAFTLRISRVEAEDVGVYYCMQHLEYPFTFGSGTKLEIKR | binds |
